# Measurements as given in the supplement of paper PMC11246515.
# ± gives the standard deviation of the averaged measurements.
# Assay: total protein half-life in vivo (active degradation + dilution); higher = more stable protein
# [1] = E. coli NCM3722 delta-clpP delta-lon delta-hslV, growth: N-lim chemostat, doubling time 6 h
# [2] = E. coli NCM3722 delta-clpP, growth: N-lim chemostat, doubling time 6 h
# [3] = E. coli NCM3722 delta-hslV, growth: N-lim chemostat, doubling time 6 h
# [4] = E. coli NCM3722 delta-lon, growth: N-lim chemostat, doubling time 6 h
# [5] = E. coli NCM3722 delta-smpB, growth: N-lim chemostat, doubling time 6 h
# [6] = wild type E. coli NCM3722, growth: C-lim chemostat, doubling time 6 h
# [7] = wild type E. coli NCM3722, growth: C-lim chemostat, doubling time 12 h
# [8] = wild type E. coli NCM3722, growth: N-lim chemostat, doubling time 6 h
# [9] = wild type E. coli NCM3722, growth: N-lim chemostat, doubling time 12 h
# [10] = wild type E. coli NCM3722, growth: P-lim chemostat, doubling time 6 h
# [11] = wild type E. coli NCM3722, growth: P-lim chemostat, doubling time 12 h
# [12] = wild type E. coli NCM3722, growth: C-lim chemostat, doubling time 3 h
Sequence,total protein half-life in vivo [1] [h],total protein half-life in vivo [2] [h],total protein half-life in vivo [3] [h],total protein half-life in vivo [4] [h],total protein half-life in vivo [5] [h],total protein half-life in vivo [6] [h],total protein half-life in vivo [7] [h],total protein half-life in vivo [8] [h],total protein half-life in vivo [9] [h],total protein half-life in vivo [10] [h],total protein half-life in vivo [11] [h],total protein half-life in vivo [12] [h]
MSVRNIFADESHDIYTVRTHADGPDGELPLTAEMLINRPSGDLFGMTMNAGMGWSPDELDRDGILLLSTLGGLRGADGKPVALALHQGHYELDIQMKAAAEVIKANHALPYAVYVSDPCDGRTQGTTGMFDSLPYRNDASMVMRRLIRSLPDAKAVIGVASCDKGLPATMMALAAQHNIATVLVPGGATLPAKDGEDNGKVQTIGARFANGELSLQDARRAGCKACASSGGGCQFLGTAGTSQVVAEGLGLAIPHSALAPSGEPVWREIARASARAALNLSQKGITTREILTDKAIENAMTVHAAFGGSTNLLLHIPAIAHQAGCHIPTVDDWIRINKRVPRLVSVLPNGPVYHPTVNAFMAGGVPEVMLHLRSLGLLHEDVMTVTGSTLKENLDWWEHSERRQRFKQLLLDQEQINADEVIMSPQQAKARGLTSTITFPVGNIAPEGSVIKSTAIDPSMIDEQGIYYHKGVAKVYLSEKSAIYDIKHDKIKAGDILVIIGVGPSGTGMEETYQVTSALKHLSYGKHVSLITDARFSGVSTGACIGHVGPEALAGGPIGKLRTGDLIEIKIDCRELHGEVNFLGTRSDEQLPSQEEATAILNARPSHQDLLPDPELPDDTRLWAMLQAVSGGTWTGCIYDVNKIGAALRDFMNKN,4.08 ± 0.67,3.14,3.82 ± 0.38,4.55 ± 0.14,3.33 ± 0.14,5.0317 ± 0.00062,8.896 ± 0.017,3.48 ± 0.52,4.88 ± 1.1,5.43 ± 0.13,10.1 ± 0.58,
MATIDSMNKDTTRLSDGPDWTFDLLDVYLAEIDRVAKLYRLDTYPHQIEVITSEQMMDAYSSVGMPINYPHWSFGKKFIETERLYKHGQQGLAYEIVINSNPCIAYLMEENTITMQALVMAHACYGHNSFFKNNYLFRSWTDASSIVDYLIFARKYITECEERYGVDEVERLLDSCHALMNYGVDRYKRPQKISLQEEKARQKSREEYLQSQVNMLWRTLPKREEEKTVAEARRYPSEPQENLLYFMEKNAPLLESWQREILRIVRKVSQYFYPQKQTQVMNEGWATFWHYTILNHLYDEGKVTERFMLEFLHSHTNVVFQPPYNSPWYSGINPYALGFAMFQDIKRICQSPTEEDKYWFPDIAGSDWLETLHFAMRDFKDESFISQFLSPKVMRDFRFFTVLDDDRHNYLEISAIHNEEGYREIRNRLSSQYNLSNLEPNIQIWNVDLRGDRSLTLRYIPHNRAPLDRGRKEVLKHVHRLWGFDVMLEQQNEDGSIELLERCPPRMGNL,4.27 ± 0.81,2.4 ± 0.062,1.59 ± 0.2,1.41 ± 0.15,1.49 ± 0.034,1.49 ± 0.059,1.94 ± 0.49,1.48 ± 0.34,1.65 ± 0.15,1.48 ± 0.55,2.27 ± 0.67,1.05 ± 0.18
MTHFSQQDNFSVAARVLGALFYYAPESAEAAPLVAVLTSDGWETQWPLPEASLAPLVTAFQTQCEETHAQAWQRLFVGPWALPSPPWGSVWLDRESVLFGDSTLALRQWMREKGIQFEMKQNEPEDHFGSLLLMAAWLAENGRQTECEELLAWHLFPWSTRFLDVFIEKAEHPFYRALGELARLTLAQWQSQLLIPVAVKPLFR,3.98 ± 0.19,4.54 ± 1.1,4.18 ± 0.73,5.74 ± 1.5,4.5 ± 0.51,5.45,11.7 ± 1.3,4.4 ± 0.41,7.72 ± 1.9,5.41 ± 0.39,11.3 ± 0.19,3 ± 0.17
MALLEICCYSMECALTAQQNGADRVELCAAPKEGGLTPSLGVLKSVRQRVTIPVHPIIRPRGGDFCYSDGEFAAILEDVRTVRELGFPGLVTGVLDVDGNVDMPRMEKIMAAAGPLAVTFHRAFDMCANPLYTLNNLAELGIARVLTSGQKSDALQGLSKIMELIAHRDAPIIMAGAGVRAENLHHFLDAGVLEVHSSAGAWQASPMRYRNQGLSMSSDEHADEYSRYIVDGAAVAEMKGIIERHQAK,5.29 ± 1.1,5.31 ± 1.4,5.99 ± 2.8,4.73 ± 0.25,4.47 ± 0.33,6.29 ± 0.61,9.735 ± 0.081,4.35 ± 0.53,6.84 ± 0.21,5.85 ± 0.37,11.8 ± 1.1,3.26 ± 0.64
